Source: PMC3268225 (Biochemical Journal, 2011)
Values belong to the binder of their own block, whether it stands above or below them.

Experiments:
His6–Zb–eEF2K[48–336] = target: T1, His6–Zb–eEF2K[48–336] (human, UniProt O00418 48-336); assay: pull-down
T1 sequence: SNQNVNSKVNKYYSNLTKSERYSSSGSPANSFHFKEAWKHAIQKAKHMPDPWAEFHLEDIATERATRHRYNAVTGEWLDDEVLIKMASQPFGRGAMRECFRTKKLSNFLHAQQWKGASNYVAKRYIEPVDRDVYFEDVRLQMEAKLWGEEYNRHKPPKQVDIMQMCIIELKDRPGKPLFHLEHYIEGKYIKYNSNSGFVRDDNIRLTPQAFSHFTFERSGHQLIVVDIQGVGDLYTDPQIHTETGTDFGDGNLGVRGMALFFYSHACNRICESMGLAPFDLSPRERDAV

eEF2K[48–336] = target: T2, eEF2K[48–336] (human, UniProt O00418 48-336); assay: SEC
T2 sequence: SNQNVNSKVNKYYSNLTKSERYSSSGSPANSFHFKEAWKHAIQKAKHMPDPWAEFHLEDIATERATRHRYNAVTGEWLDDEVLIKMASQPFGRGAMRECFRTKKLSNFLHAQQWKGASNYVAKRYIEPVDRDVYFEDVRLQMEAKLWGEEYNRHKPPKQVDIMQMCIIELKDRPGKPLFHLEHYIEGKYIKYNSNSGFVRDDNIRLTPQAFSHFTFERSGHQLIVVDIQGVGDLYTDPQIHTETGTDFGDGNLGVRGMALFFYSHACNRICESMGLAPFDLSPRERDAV

GST–eEF2K[1–402]–His6 = target: T3, GST–eEF2K[1–402]–His6 (human, UniProt O00418 1-402); assay: ELISA
T3 sequence: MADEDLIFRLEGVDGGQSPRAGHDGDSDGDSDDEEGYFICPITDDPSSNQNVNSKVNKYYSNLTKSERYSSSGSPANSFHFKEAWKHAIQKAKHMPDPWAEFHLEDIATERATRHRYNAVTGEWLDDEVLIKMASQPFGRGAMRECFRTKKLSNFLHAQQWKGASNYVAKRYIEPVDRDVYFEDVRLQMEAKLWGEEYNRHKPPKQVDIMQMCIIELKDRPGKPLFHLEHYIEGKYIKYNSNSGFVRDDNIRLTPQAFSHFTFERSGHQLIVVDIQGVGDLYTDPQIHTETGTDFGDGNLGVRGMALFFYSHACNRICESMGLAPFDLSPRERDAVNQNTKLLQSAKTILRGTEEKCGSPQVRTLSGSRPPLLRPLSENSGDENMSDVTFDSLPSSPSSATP

binding result (His6–Zb–eEF2K[48–336]): binds
B1: His6–eEF2K[490–725] (domain or fragment)
chain: NSSRLHLPRASAVALEVQRLNALDLEKKIGKSILGKVHLAMVRYHEGGRFCEKGEEWDQESAVFHLEHAANLGELEAIVGLGLMYSQLPHHILADVSLKETEENKTKGFDYLLKAAEAGDRQSMILVARAFDSGQNLSPDRCQDWLEALHWYNTALEMTDCDEGGEYDGMQDEPRYMMLAREAEMLFTGGYGLEKDPQRSGDLYTQAAEAAMEAMKGRLANQYYQKAEEAWAQMEE

binding result (eEF2K[48–336]): binds
B2: eEF2K[490–725] (domain or fragment)
chain: NSSRLHLPRASAVALEVQRLNALDLEKKIGKSILGKVHLAMVRYHEGGRFCEKGEEWDQESAVFHLEHAANLGELEAIVGLGLMYSQLPHHILADVSLKETEENKTKGFDYLLKAAEAGDRQSMILVARAFDSGQNLSPDRCQDWLEALHWYNTALEMTDCDEGGEYDGMQDEPRYMMLAREAEMLFTGGYGLEKDPQRSGDLYTQAAEAAMEAMKGRLANQYYQKAEEAWAQMEE

binding result (GST–eEF2K[1–402]–His6): binds
B3: GST–eEF2K[478–725] (domain or fragment)
chain: SGRVCVEKWNLLNSSRLHLPRASAVALEVQRLNALDLEKKIGKSILGKVHLAMVRYHEGGRFCEKGEEWDQESAVFHLEHAANLGELEAIVGLGLMYSQLPHHILADVSLKETEENKTKGFDYLLKAAEAGDRQSMILVARAFDSGQNLSPDRCQDWLEALHWYNTALEMTDCDEGGEYDGMQDEPRYMMLAREAEMLFTGGYGLEKDPQRSGDLYTQAAEAAMEAMKGRLANQYYQKAEEAWAQMEE
